In patent US20220041711A1 (NGM BIOPHARMACEUTICALS, published 2022):
Where two headings read alike, the source gives them in different places. Each block holds one binder with its values, some of them ahead of it.

How the values were obtained:
[1] = target: T1, mouse LAIR-1-PILRβ chimeric receptor on GFP reporter cells (mouse); test: cell-based or functional assay
[2] = target: T1, mouse LAIR-1-PILRβ chimeric receptor on …; test: cell-based or functional assay; remark: listed apart in the source
[3] = target: T2, mouse LAIR-1-hFc (Sino Biological) (mouse, UniProt Q8BG84 22-144, limits assumed); test: flow cytometry blocking: antibody pre-incubated with 2 µg/mL mouse LAIR-1-hFc, added to HEK-293T cells transfected with mouse MARCO, Alexa Fluor 647 anti-human Fc, MFI (right panel)
T2 construct: Bought; also called mouse LAIR-1-Fc; not shown: human Fc (hFc)
T2 sequence: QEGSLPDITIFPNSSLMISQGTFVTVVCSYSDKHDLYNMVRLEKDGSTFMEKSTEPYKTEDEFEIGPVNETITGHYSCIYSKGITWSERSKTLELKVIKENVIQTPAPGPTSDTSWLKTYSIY

[4] = target: T2, mouse LAIR-1-hFc (Sino Biological); test: ELISA blocking: plate coated with 2 µg/mL mouse collagen type 1, antibody pre-incubated with 2 µg/mL mouse LAIR-1-hFc, HRP anti-human Fc, OD650 (left panel)
[5] = target: T3, human LAIR-1, endogenous on human cells (human, UniProt Q6GTX8 22-287); test: flow cytometry of human PBMCs (9 donors) with Alexa Fluor 488-labelled ch47H1
T3 construct: Native receptor of primary human cells and of the THP1 line; isoform on the cells not determined; also called LAIR-1 on PBMC subsets, THP1 cells, monocyte-derived dendritic cells, macrophages and T-cells
T3 chain: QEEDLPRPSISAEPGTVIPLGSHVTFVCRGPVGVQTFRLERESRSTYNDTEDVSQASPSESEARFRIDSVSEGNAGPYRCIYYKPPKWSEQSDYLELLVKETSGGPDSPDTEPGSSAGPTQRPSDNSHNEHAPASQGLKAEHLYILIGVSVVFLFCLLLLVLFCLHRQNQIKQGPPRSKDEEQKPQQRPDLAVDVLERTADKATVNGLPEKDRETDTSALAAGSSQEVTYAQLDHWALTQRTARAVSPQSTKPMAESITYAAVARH

[6] = target: T4, cyno LAIR-1-CD3ζ chimeric receptor on NFAT-GFP reporter cells (cynomolgus monkey; human); test: cell-based or functional assay
[7] = target: T5, human LAIR-1-CD3ζ chimeric receptor on NFAT-GFP reporter cells (human, UniProt P20963 31-164, limits assumed); test: cell-based or functional assay
[8] = target: T4, cyno LAIR-1-CD3ζ chimeric receptor on …; test: flow cytometry on cyno LAIR-1 reporter cells, PE anti-human Fc secondary, MFI (panel Cynomolgus Monkey LAIR1 Cells)
human LAIR-1-ECD = target: T6, human LAIR-1-ECD (human, UniProt Q6GTX8 22-165); test: SPR (Biacore) as in Example 2
T6 construct: Recombinant, expressed in mammalian cells; also called extracellular region of human LAIR-1
T6 chain: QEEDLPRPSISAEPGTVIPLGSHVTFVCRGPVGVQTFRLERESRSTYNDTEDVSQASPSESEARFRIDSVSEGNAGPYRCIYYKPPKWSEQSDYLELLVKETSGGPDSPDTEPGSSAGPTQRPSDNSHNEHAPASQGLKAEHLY

cyno LAIR-1-ECD = target: T7, cyno LAIR-1-ECD (cynomolgus monkey); test: SPR (Biacore) as in Example 2
T7 construct: Recombinant, expressed in mammalian cells; also called extracellular region of cyno LAIR-1
T7 chain: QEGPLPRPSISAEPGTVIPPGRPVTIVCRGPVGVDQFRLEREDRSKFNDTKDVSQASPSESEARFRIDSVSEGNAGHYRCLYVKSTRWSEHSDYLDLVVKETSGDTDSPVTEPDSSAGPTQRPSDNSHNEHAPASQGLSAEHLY

[9] = target: T5, human LAIR-1-CD3ζ chimeric receptor on …; test: flow cytometry on human LAIR-1 reporter cells, PE anti-human Fc secondary, MFI (panel Human LAIR1 Cells)
[10] = target: T4, cyno LAIR-1-CD3ζ chimeric receptor on …; test: cell-based or functional assay; remark: listed apart in the source
[11] = target: T5, human LAIR-1-CD3ζ chimeric receptor on …; test: cell-based or functional assay; remark: listed apart in the source
human LAIR-1-Fc = target: T8, human LAIR-1-Fc (human, UniProt Q6GTX8 22-165); test: ELISA blocking: plate coated with 5 µg/mL human collagen type 1, antibody titrated, 1 µg/mL biotinylated human LAIR-1-Fc, streptavidin-HRP, OD650
T8 construct: also called biotinylated human LAIR-1-Fc; not shown: a Fc region
T8 chain: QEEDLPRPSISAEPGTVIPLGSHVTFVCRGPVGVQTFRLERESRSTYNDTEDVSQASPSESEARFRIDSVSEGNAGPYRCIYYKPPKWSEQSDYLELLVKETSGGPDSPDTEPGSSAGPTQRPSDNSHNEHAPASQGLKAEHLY

[12] = target: T9, human LAIR-1b (alternative isoform of human LAIR-1) on transfected 293T cells (human, UniProt Q6GTX8 22-287); test: flow cytometry on cells expressing human LAIR-1b, PE anti-human Fc secondary, MFI (panel Human LAIR1 (Truncated) Cells)
T9 chain: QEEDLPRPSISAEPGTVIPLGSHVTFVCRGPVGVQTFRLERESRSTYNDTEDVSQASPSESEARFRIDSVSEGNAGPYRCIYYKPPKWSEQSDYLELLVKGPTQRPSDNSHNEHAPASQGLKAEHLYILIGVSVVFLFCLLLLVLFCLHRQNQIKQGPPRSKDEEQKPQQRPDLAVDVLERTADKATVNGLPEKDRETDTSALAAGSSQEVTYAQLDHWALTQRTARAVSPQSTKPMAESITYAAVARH

[13] = target: T5, human LAIR-1-CD3ζ chimeric receptor on …; test: cell-based or functional assay; remark: listed apart in the source
[14] = target: T5, human LAIR-1-CD3ζ chimeric receptor on …; test: cell-based or functional assay; remark: listed apart in the source
[15] = target: T4, cyno LAIR-1-CD3ζ chimeric receptor on …; test: cell-based or functional assay; remark: listed apart in the source
[16] = target: T5, human LAIR-1-CD3ζ chimeric receptor on …; test: cell-based or functional assay; remark: listed apart in the source

IC50 (read off the curve): % GFP+ mouse LAIR-1 reporter cells on coated human MARCO-his [1]: ~100 pM
IC50 (read off the curve): % GFP+ mouse LAIR-1 reporter cells on coated mouse collagen type 1 [1]: ~40 pM
IC50 (read off the curve): % GFP+ mouse LAIR-1 reporter cells on coated mouse collagen type 4 [1]: ~20 pM
IC50 (read off the curve): % GFP+ mouse LAIR-1 reporter cells co-cultured with bEnd.3 cells [2]: ~20 pM
IC50 (read off the curve) [3]: ~20000 pM
IC50 (read off the curve) [4]: ~80000 pM
B1: anti-mouse LAIR-1 antibody 43H2 (antibody, V domains shown)
VH: EVQLVESGGGLVQPGRSLKVSCAASGFTFSNYGIHWIRQAPTKGLEWVASISPSGRSTYFRDSVKGRFTISRDNAKNTLYLQLDSLRSEDTATYYCATGINYSSFDYWGQGVMVTVSS
VL: DIVMTQSPTSMSISVGDRVTMNCKASQNVGSHVDWYQQKTGQSPKLLISTASNRYTGVPDRFTGSGSGTDFTFTINNMQTEDLAVYYCMQSNSYPPTFGGGTKLELK
notes: Raised in rats

binding result [5]: binds
IC50 (read off the curve): % GFP+ cyno LAIR-1 reporter cells on coated MARCO-his [6]: ~100 pM
IC50 (read off the curve): % GFP+ cyno LAIR-1 reporter cells on coated collagen 1 [6]: ~200 pM
IC50 (read off the curve): % GFP+ cyno LAIR-1 reporter cells on coated collagen 4 [6]: ~200 pM
IC50 (read off the curve): % GFP+ human LAIR-1 reporter cells on coated MARCO-his [7]: ~20 pM
IC50 (read off the curve): % GFP+ human LAIR-1 reporter cells on coated collagen 1 [7]: ~20 pM
IC50 (read off the curve): % GFP+ human LAIR-1 reporter cells on coated collagen 4 [7]: ~20 pM
EC50 (read off the curve) [8]: ~700 pM
Kd (human LAIR-1-ECD): 340 pM
koff (human LAIR-1-ECD): 0.00051 s⁻¹
kon (human LAIR-1-ECD): 1.5e+06 M⁻¹ s⁻¹
Kd (cyno LAIR-1-ECD): 4600 pM
koff (cyno LAIR-1-ECD): 0.001 s⁻¹
kon (cyno LAIR-1-ECD): 220000 M⁻¹ s⁻¹
EC50 (read off the curve) [9]: ~200 pM
IC50 (read off the curve): % GFP+ cyno LAIR-1 reporter cells co-cultured with bEnd.3 cells [10]: ~100 pM
IC50 (read off the curve): % GFP+ human LAIR-1 reporter cells co-cultured with bEnd.3 cells [11]: ~20 pM
IC50 (read off the curve) (human LAIR-1-Fc): ~3000 pM
EC50 (read off the curve) [12]: ~1000 pM
IC50 (read off the curve): % GFP+ human LAIR-1 reporter cells on coated MARCO-his [13]: ~70 pM
IC50 (read off the curve): % GFP+ human LAIR-1 reporter cells on coated collagen 1 [13]: ~90 pM
IC50 (read off the curve): % GFP+ human LAIR-1 reporter cells on coated collagen 4 [13]: ~60 pM
IC50 (read off the curve): % GFP+ human LAIR-1 reporter cells on coated C1 complex [14]: ~20 pM
IC50 (read off the curve): % GFP+ human LAIR-1 reporter cells on coated COLEC12 [14]: ~50 pM
IC50 (read off the curve): % GFP+ human LAIR-1 reporter cells on coated MARCO-his [14]: ~30 pM
IC50 (read off the curve): % GFP+ human LAIR-1 reporter cells on coated MBL [14]: ~60 pM
IC50 (read off the curve): % GFP+ human LAIR-1 reporter cells on coated SP-D [14]: ~30 pM
IC50 (read off the curve): % GFP+ human LAIR-1 reporter cells on coated collagen 1 [14]: ~20 pM
IC50 (read off the curve): % GFP+ human LAIR-1 reporter cells on coated collagen 4 [14]: ~20 pM
IC50 (read off the curve): % GFP+ cyno LAIR-1 reporter cells on polymerized collagen matrix [15]: ~200 pM
IC50 (read off the curve): % GFP+ human LAIR-1 reporter cells on polymerized collagen matrix [16]: ~30 pM
B2: anti-LAIR-1 antibody ch47H1 (antibody, V domains shown)
VH: EVQLVETGGGLVQPKGSLKLSCAASGFTFNINAMNWVRQAPGKGLEWVARIRTKNNNYATFYADSVKDRFTISRDDSQSMLYLQMNNLKTDDTAMYYCVRDRAGFFAYWGQGTPVTVSA
VL: DIQMTQSPASQSASLGESVTITCLASQTIGTWLGWYRQKPGKSPQLLIYAATSLADGVPSRFSGSGSGTKFSFKISSLQAEDFVIYYCQQLYSTPLTFGSGTKLEIK
notes: The prefix 'ch' is not defined; detected with anti-human Fc secondary antibody
